Source: paper PMC12072117

Molecular target: cyclin-dependent kinase 1 (CDK1) (Xenopus laevis (endogenous in oocyte CSF extract))

Substance: glutathione S-transferase-tagged cell division cycle 6 (GST-CDC6) (natural protein)
- histone H1 kinase activity of CDC6-depleted CSF extract with 10 to 20 nM GST-CDC6 added (about 40% less with 10 nM, 45% less with 20 nM): 45 % less
